# Measurements as given in patent US20160153985A1.
# Tests used:
# [1] = molecular target: pure human iC3b (Complement Technology, A115) (human) (UniProt P01024); test: sandwich ELISA, capture A209 (Example 5), goat anti-C3-HRP; TABLE 6 well G3, 10% vitreous
# [2] = molecular target: pure human iC3b (Complement Technology, A115) (human) (UniProt P01024); test: sandwich ELISA, capture A209 (Example 5), goat anti-C3-HRP; TABLE 6 well B9, blocker
# [3] = molecular target: pure human iC3b (Complement Technology, A115) (human) (UniProt P01024); test: sandwich ELISA, capture A209 (Example 5), goat anti-C3-HRP; TABLE 7, iC3b in blocker
# [4] = molecular target: pure human iC3b (Complement Technology, A115) (human) (UniProt P01024); test: sandwich ELISA, capture A209 (Example 5), goat anti-C3-HRP; TABLE 6 well H8, 10% vitreous
# [5] = molecular target: pure human iC3b (Complement Technology, A115) (human) (UniProt P01024); test: sandwich ELISA of Example 5, iC3b concentration labeled 0.0125 in 20% human vitreous, duplicate 1
# [6] = molecular target: pure human iC3b (Complement Technology, A115) (human) (UniProt P01024); test: sandwich ELISA, capture A209 (Example 5), goat anti-C3-HRP; TABLE 6 well G4, 10% vitreous
# [7] = molecular target: pure human iC3b (Complement Technology, A115) (human) (UniProt P01024); test: sandwich ELISA, capture A209 (Example 5), goat anti-C3-HRP; TABLE 7, iC3b in 10% vitreous
# [8] = molecular target: pure human iC3b (Complement Technology, A115) (human) (UniProt P01024); test: sandwich ELISA, capture A209 (Example 5), goat anti-C3-HRP; TABLE 6 well E7, 20% vitreous
# [9] = molecular target: pure human iC3b (Complement Technology, A115) (human) (UniProt P01024); test: sandwich ELISA, capture A209 (Example 5), goat anti-C3-HRP; TABLE 6 well B8, blocker
# [10] = molecular target: pure human iC3b (Complement Technology, A115) (human) (UniProt P01024); test: sandwich ELISA, capture A209 (Example 5), goat anti-C3-HRP; TABLE 6 well F9, 20% vitreous
# [11] = molecular target: pure human iC3b (Complement Technology, A115) (human) (UniProt P01024); test: sandwich ELISA, capture A209 (Example 5), goat anti-C3-HRP; TABLE 6 well E3, 20% vitreous
# [12] = molecular target: pure human iC3b (Complement Technology, A115) (human) (UniProt P01024); test: sandwich ELISA, capture A209 (Example 5), goat anti-C3-HRP; TABLE 6 well C8, 30% vitreous
# [13] = molecular target: pure human iC3b (Complement Technology, A115) (human) (UniProt P01024); test: sandwich ELISA, capture A209 (Example 5), goat anti-C3-HRP; TABLE 6 well G2, 10% vitreous
# [14] = molecular target: pure human iC3b (Complement Technology, A115) (human) (UniProt P01024); test: sandwich ELISA, capture A209 (Example 5), goat anti-C3-HRP; TABLE 6 well B4, blocker
# [15] = molecular target: pure human iC3b (Complement Technology, A115) (human) (UniProt P01024); test: sandwich ELISA, capture A209 (Example 5), goat anti-C3-HRP; TABLE 6 well D9, 30% vitreous
# [16] = molecular target: pure human iC3b (Complement Technology, A115) (human) (UniProt P01024); test: sandwich ELISA, capture A209 (Example 5), goat anti-C3-HRP; TABLE 6 well A5, blocker
# [17] = molecular target: pure human iC3b (Complement Technology, A115) (human) (UniProt P01024); test: sandwich ELISA, capture A209 (Example 5), goat anti-C3-HRP; TABLE 6 well F8, 20% vitreous
# [18] = molecular target: pure human iC3b (Complement Technology, A115) (human) (UniProt P01024); test: sandwich ELISA, capture A209 (Example 5), goat anti-C3-HRP; TABLE 6 well G7, 10% vitreous
# [19] = molecular target: pure human iC3b (Complement Technology, A115) (human) (UniProt P01024); test: sandwich ELISA, capture A209 (Example 5), goat anti-C3-HRP; TABLE 6 well D8, 30% vitreous
# Chain of UniProt P01024 (P01024 23-667 limits assumed, chain 1 of 3): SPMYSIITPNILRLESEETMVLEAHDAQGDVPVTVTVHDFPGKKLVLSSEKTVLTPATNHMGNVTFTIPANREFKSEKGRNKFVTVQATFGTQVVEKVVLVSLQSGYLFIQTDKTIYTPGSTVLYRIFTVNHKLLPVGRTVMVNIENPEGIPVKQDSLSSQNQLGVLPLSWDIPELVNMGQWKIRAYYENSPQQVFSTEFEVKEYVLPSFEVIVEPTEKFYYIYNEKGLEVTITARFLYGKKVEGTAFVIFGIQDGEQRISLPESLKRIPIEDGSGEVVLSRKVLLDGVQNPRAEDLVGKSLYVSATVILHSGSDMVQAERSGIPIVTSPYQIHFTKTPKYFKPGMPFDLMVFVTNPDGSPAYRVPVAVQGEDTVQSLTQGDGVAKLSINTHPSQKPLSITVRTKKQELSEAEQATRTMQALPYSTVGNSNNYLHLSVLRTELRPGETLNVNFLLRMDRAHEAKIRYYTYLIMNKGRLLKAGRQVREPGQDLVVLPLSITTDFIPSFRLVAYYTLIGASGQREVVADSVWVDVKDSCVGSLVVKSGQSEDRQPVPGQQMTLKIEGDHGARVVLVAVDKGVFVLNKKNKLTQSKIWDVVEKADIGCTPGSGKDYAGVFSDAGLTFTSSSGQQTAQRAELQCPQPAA
# Chain of UniProt P01024 (P01024 749-1303 limits assumed, chain 2 of 3): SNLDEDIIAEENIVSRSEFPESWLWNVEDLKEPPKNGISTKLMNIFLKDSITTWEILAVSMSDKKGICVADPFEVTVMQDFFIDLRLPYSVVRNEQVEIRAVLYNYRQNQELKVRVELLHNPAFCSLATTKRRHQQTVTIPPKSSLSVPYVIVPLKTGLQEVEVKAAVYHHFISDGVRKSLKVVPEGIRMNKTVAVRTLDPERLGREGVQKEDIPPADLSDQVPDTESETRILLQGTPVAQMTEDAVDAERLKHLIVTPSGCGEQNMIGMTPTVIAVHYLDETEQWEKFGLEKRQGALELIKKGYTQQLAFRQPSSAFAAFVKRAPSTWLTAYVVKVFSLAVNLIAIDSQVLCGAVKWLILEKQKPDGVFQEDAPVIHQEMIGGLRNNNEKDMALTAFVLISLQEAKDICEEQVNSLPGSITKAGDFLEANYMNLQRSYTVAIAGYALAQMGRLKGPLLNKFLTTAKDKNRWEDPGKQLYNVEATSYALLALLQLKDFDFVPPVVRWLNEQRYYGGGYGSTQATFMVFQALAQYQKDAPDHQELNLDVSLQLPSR
# Chain of UniProt P01024 (P01024 1321-1663 limits assumed, chain 3 of 3): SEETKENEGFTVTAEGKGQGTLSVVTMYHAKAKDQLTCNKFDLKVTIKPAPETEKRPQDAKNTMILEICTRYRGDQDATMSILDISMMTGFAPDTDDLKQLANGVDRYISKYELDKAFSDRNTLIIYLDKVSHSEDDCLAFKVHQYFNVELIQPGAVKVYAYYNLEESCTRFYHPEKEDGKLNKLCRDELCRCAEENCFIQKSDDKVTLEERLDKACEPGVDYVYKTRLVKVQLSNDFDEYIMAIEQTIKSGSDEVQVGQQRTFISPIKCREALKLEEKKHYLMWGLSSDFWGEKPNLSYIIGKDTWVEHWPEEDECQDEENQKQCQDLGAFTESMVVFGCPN
substance,measurement,setting,value
mouse anti-iC3b antibody A209 (Quidel),raw A450 at iC3b 0.5 ug/ml,[1],0.385 OD
same,raw A450 at iC3b 0.0078 ug/ml,[2],0.032 OD
same,A450 minus matrix average at iC3b 0.016 ug/ml,[3],0.011 OD
same,A450 minus matrix average at iC3b 0.031 ug/ml,[3],0.021 OD
same,A450 minus matrix average at iC3b 0.063 ug/ml,[3],0.037 OD
same,A450 minus matrix average at iC3b 0.125 ug/ml,[3],0.073 OD
same,A450 minus matrix average at iC3b 0.25 ug/ml,[3],0.138 OD
same,A450 minus matrix average at iC3b 0.5 ug/ml,[3],0.232 OD
same,A450 minus matrix average at iC3b 1 ug/ml,[3],0.328 OD
same,raw A450 at iC3b 0.016 ug/ml,[4],0.237 OD
same,"absorbance A450, raw",[5],0.361 A450
same,raw A450 at iC3b 0.25 ug/ml,[6],0.28 OD
same,A450 minus matrix average at iC3b 0.0078 ug/ml,[7],-0.008 OD
same,A450 minus matrix average at iC3b 0.016 ug/ml,[7],0.006 OD
same,A450 minus matrix average at iC3b 0.031 ug/ml,[7],0.014 OD
same,A450 minus matrix average at iC3b 0.063 ug/ml,[7],0.017 OD
same,A450 minus matrix average at iC3b 0.125 ug/ml,[7],0.062 OD
same,A450 minus matrix average at iC3b 0.25 ug/ml,[7],0.056 OD
same,A450 minus matrix average at iC3b 0.5 ug/ml,[7],0.125 OD
same,A450 minus matrix average at iC3b 1 ug/ml,[7],0.239 OD
same,raw A450 at iC3b 0.031 ug/ml,[8],0.339 OD
same,raw A450 at iC3b 0.016 ug/ml,[9],0.038 OD
same,raw A450 at iC3b 0.0078 ug/ml,[10],0.38 OD
same,raw A450 at iC3b 0.5 ug/ml,[11],0.442 OD
same,raw A450 at iC3b 0.016 ug/ml,[12],0.336 OD
same,raw A450 at iC3b 1 ug/ml,[13],0.508 OD
same,raw A450 at iC3b 0.25 ug/ml,[14],0.167 OD
same,raw A450 at iC3b 0.0078 ug/ml,[15],0.362 OD
same,raw A450 at iC3b 0.125 ug/ml,[16],0.106 OD
same,raw A450 at iC3b 0.016 ug/ml,[17],0.318 OD
same,raw A450 at iC3b 0.031 ug/ml,[18],0.248 OD
same,raw A450 at iC3b 0.016 ug/ml,[19],0.355 OD
